Earlier results as cited in article PMC8087844.

Target: IL2R alpha (CD25) (Homo sapiens) (UniProt P01589)
Chain of UniProt P01589 (P01589 22-240): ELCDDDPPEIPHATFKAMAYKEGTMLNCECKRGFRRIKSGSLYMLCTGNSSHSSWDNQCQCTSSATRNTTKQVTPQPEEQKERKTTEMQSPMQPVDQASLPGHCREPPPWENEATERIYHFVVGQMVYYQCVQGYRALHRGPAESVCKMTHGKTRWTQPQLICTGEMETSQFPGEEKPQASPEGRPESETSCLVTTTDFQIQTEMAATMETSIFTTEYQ

Kd: 0.3 nM
Substance: Daclizumab
